Assays:
Settings in all cases: protein: recombinant; tags: N-terminal His-SUMO removed by TEV; label: 5'-6-FAM; predicted intramolecular fold
[1] = biological target: T1, PARP4 BRCT-WGR-CAT K23/24Q (human, UniProt Q9UKK3 1-573, K23Q;K24Q); assay: FP; 3 nM probe; FP: 50 mM Tris pH 7.5, 50 mM NaCl, 1 mM MgCl2, 0.05% NP40, 2 mM DTT, 5% glycerol, 25 ug/ml BSA, room temp 30 min; EMSA: 50 mM Tris pH 7.5, 50 mM NaCl, 4% Ficoll PM400, 0.05% NP40, 2 mM DTT, 0-18 uM protein, room temp 30 min, gel at 4 C
T1 sequence: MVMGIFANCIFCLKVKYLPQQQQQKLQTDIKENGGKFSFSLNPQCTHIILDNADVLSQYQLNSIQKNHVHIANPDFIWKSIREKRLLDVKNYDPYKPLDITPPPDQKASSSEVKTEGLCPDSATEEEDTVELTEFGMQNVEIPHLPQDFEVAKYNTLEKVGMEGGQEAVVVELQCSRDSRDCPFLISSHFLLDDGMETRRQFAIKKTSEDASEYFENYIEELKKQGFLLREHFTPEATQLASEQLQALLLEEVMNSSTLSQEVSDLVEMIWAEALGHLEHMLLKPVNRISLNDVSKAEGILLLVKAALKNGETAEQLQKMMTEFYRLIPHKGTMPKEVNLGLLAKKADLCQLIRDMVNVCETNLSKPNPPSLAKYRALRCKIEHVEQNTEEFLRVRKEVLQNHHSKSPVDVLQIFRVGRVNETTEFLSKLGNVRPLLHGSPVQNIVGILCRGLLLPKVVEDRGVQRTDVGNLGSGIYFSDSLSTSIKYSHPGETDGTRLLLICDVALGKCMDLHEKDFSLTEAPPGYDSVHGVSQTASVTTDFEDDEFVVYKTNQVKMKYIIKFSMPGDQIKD

PARP4 BRCT F39A = biological target: T2, PARP4 BRCT F39A (human, UniProt Q9UKK3 1-100, F39A); assay: as above
T2 sequence: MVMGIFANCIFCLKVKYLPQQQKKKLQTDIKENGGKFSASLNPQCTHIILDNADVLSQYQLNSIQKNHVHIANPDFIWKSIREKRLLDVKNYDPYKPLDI

PARP4 BRCT WT [2] = biological target: T3, PARP4 BRCT WT (human, UniProt Q9UKK3 1-100); assay: as above
T3 sequence: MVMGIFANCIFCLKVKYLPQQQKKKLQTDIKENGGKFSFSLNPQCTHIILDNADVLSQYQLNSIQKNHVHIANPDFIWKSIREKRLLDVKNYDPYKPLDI

PARP4 BRCT F39Q = biological target: T4, PARP4 BRCT F39Q (human, UniProt Q9UKK3 1-100, F39Q); assay: as above
T4 sequence: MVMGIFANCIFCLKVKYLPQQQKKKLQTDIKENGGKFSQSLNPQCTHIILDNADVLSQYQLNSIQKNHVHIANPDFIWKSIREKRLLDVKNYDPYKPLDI

PARP4 BRCT K23/24Q = biological target: T5, PARP4 BRCT K23/24Q (human, UniProt Q9UKK3 1-100, K23Q;K24Q); assay: as above
T5 sequence: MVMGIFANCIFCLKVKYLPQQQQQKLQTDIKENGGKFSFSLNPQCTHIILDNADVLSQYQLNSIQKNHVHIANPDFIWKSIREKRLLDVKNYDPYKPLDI

PARP4 BRCT WT [3] = biological target: T3, PARP4 BRCT WT; assay: FP; 30 nM probe, probe concentration comparison; FP: 50 mM Tris pH 7.5, 50 mM NaCl, 1 mM MgCl2, 0.05% NP40, 2 mM DTT, 5% glycerol, 25 ug/ml BSA, room temp 30 min; EMSA: 50 mM Tris pH 7.5, 50 mM NaCl, 4% Ficoll PM400, 0.05% NP40, 2 mM DTT, 0-18 uM protein, room temp 30 min, gel at 4 C
[4] = biological target: T1, PARP4 BRCT-WGR-CAT K23/24Q; assay: EMSA; 20 nM probe; rough estimate; FP: 50 mM Tris pH 7.5, 50 mM NaCl, 1 mM MgCl2, 0.05% NP40, 2 mM DTT, 5% glycerol, 25 ug/ml BSA, room temp 30 min; EMSA: 50 mM Tris pH 7.5, 50 mM NaCl, 4% Ficoll PM400, 0.05% NP40, 2 mM DTT, 0-18 uM protein, room temp 30 min, gel at 4 C

B1: vtRNA1-3 (structured_RNA)
RNA: GGCUGGCUUUAGCUCAGCGGUUACUUCGCGUGUCAUCAAACCACCUCUCUGGGUUGUUCGAGACCCGCGGGCGCUCUCCAGCCCUCUU
[1]
  Kd: 71 ± 26 µM
PARP4 BRCT F39A
  Kd: 33 ± 2 µM
PARP4 BRCT WT [2]
  Kd: 19 ± 4 µM
PARP4 BRCT F39Q
  Kd: 35 ± 10 µM
PARP4 BRCT K23/24Q
  binding result: no binding
PARP4 BRCT WT [3]
  Kd: 18 ± 3 µM
[4]
  Kd: ~54 µM

From paper PMC12212138, “Crystal structure and mutagenesis of a nucleic acid–binding BRCT domain in human PARP4”
